Numbering of substitutions follows the chain as printed.
T1: recombinant WNV capsid mutant rC(S36A), N-terminal hexa-histidine tag, expressed in E. coli from pQE30, Q9Q6P4
T1 chain: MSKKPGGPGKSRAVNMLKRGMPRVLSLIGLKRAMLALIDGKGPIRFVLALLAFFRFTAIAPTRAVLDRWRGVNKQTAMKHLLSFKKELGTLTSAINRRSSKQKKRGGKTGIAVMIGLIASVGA

T2: recombinant WNV capsid protein with an N-terminal hexa-histidine tag, expressed in E. coli from pQE30, Q9Q6P4
T2 chain: T1 chain with A36S

B1: recombinant CK2 (whole enzyme, Biomol) (protein)
chain 1: MSGPVPSRARVYTDVNTHRPREYWDYESHVVEWGNQDDYQLVRKLGRGKYSEVFEAINITNNEKVVVKILKPVKKKKIKREIKILENLRGGPNIITLADIVKDPVSRTPALVFEHVNNTDFKQLYQTLTDYDIRFYMYEILKALDYCHSMGIMHRDVKPHNVMIDHEHRKLRLIDWGLAEFYHPGQEYNVRVASRYFKGPELLVDYQMYDYSLDMWSLGCMLASMIFRKEPFFHGHDNYDQLVRIAKVLGTEDLYDYIDKYNIELDPRFNDILGRHSRKRWERFVHSENQHLVSPEALDFLDKLLRYDHQSRLTAREAMEHPYFYTVVKDQARMGSSSMPGGSTPVSSANMMSGISSVPTPSPLGPLAGSPVIAAANPLGMPVPAAAGAQQ
chain 2: not shown
B2: purified recombinant CK2α subunit protein (Biomol) (protein)
chain: B1 chain 1

Tests used:
[1] = biological target: CKII-Pep, commercial CK2 substrate peptide
[2] = biological target: T1, recombinant WNV capsid mutant rC(S36A), …
[3] = biological target: T2, recombinant WNV capsid protein with an …

Protein	dot-blot kinase assay [1]	in vitro phosphorylation (CK2 kinase assay, autoradiography) [2]	in vitro phosphorylation (32P-ATP kinase assay, autoradiography) [3]	in vitro phosphorylation (kinase assay with a single recombinant subunit) [3]
B1	Only Cp(30-48) and CK-II-Pep peptides reacted positively to CK2 assay	the phosphorylation signal was totally absent from C(S36A) while the wild rC still was labeled in the in vitro assay	purified fractions yielded was phosphorylated by CK2	
B2				Neither of the subunits was able to phosphorylate the protein by themselves

Source: patent US20100256217
